The text below walks through data of article PMC2821155.

Among the targets are GluA1 (UniProt P19490); HA-GluA1 (UniProt P19490); HA-GluA1ΔNTD; HA-GluA1ΔNTD-GFP×3.
What all share (assay): native gel or EMSA
Background: Mobility shift assays separate free from complexed probe on a gel.

Test [1] concerns the target GluA1 Lurcher mutant (A636T) (UniProt P19490).
The target is the same in test [2]. The source holds these as a separate data set.
For test [3], the target named is GluA1ΔNTD Lurcher mutant (A636T).
The target in test [4] is neuronal AMPA receptor complex detected using the anti-GluA2/3 antibody (mouse (endogenous in cerebellar granule cells)) (UniProt P23819).

“And” between values parts separate entries of the source, which are not always exact repeats. Identical values can stand only once. Like-named read-outs stand apart in the source and are kept apart here.

UniProt P23819, sequence (P23819 25-883, one chain of several): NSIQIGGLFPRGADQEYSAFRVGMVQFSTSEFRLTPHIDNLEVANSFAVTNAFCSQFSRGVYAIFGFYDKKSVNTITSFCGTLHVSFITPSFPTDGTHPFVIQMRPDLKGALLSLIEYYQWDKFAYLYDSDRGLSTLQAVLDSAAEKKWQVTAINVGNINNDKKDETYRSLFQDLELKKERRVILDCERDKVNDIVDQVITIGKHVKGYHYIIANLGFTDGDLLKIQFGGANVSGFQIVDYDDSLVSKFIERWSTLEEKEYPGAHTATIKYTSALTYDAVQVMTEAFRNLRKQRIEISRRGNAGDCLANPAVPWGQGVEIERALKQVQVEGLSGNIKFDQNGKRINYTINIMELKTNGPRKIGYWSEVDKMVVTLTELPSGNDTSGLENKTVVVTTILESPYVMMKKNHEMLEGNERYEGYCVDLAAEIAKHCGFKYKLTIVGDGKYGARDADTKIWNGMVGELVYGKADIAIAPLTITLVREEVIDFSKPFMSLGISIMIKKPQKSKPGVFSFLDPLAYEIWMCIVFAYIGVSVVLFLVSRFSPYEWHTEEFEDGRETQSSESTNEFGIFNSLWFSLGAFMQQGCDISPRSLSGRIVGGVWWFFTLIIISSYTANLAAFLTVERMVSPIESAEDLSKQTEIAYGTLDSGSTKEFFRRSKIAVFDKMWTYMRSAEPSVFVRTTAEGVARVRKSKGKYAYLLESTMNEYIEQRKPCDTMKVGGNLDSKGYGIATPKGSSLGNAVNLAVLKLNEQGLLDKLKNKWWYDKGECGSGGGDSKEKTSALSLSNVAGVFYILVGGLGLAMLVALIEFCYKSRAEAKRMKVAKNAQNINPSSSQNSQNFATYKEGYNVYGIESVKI

As for “GluA1 (from UniProt P19490 19-907) (receptor)”, the stoichiometry N (subunits in the oligomer) with GluA1 was 4 and 2.

Consider “GluA1 Lurcher mutant (A636T) (from UniProt P19490 19-907) (receptor)”, for which the stoichiometry N (subunits in the oligomer) is 4 in test [1] and 2 in test [2].

“GluA1ΔNTD Lurcher mutant (A636T) (domain or fragment)” returned a stoichiometry N (subunits in the oligomer) in test [3] of 4.

In the case of “HA-GluA1 (from UniProt P19490 19-907) (receptor)”, in the test with HA-GluA1, the stoichiometry N (subunits in the oligomer) was 4.

Regarding HA-GluA1ΔNTD (domain or fragment), in the test with HA-GluA1ΔNTD, the stoichiometry N (subunits in the oligomer) worked out at 4.

Take HA-GluA1ΔNTD-GFP×3 (domain or fragment): in the test with HA-GluA1ΔNTD-GFP×3, the stoichiometry N (subunits in the oligomer) was 4.

B1: stargazin (endogenous, cerebellar granule cells) (natural protein)
chain: MGLFDRGVQMLLTTVGAFAAFSLMTIAVGTDYWLYSRGVCKTKSVSENETSKKNEEVMTHSGLWRTCCLEGNFKGLCKQIDHFPEDADYEADTAEYFLRAVRASSIFPILSVILLFMGGLCIAASEFYKTRHNIILSAGIFFVSAGLSNIIGIIVYISANAGDPSKSDSKKNSYSYGWSFYFGALSFIIAEMVGVLAVHMFIDRHKQLRATARATDYLQASAITRIPSYRYRYQRRSRSSSRSTEPSHSRDASPVGVKGFNTLPSTEISMYTLSRDPLKAATTPTATYNSDRDNSFLQVHNCIQKDSKDSLHANTANRRTTPV
For the molecule B1, the stoichiometry N (stargazin per AMPA receptor tetramer) in test [4] came out at 1.
